Source: paper PMC10965912, “FliH and FliI help FlhA bring strict order to flagellar protein export in Salmonella” (Communications Biology, 2024)

T1: FlgK (Salmonella enterica serovar Typhimurium, UniProt P0A1J5 1-553)
T1 construct: FlgK, filament-type export substrate, Salmonella enterica serovar Typhimurium (plasmid pMKGK2, pTrc99A); source: E. coli BL21 Star (DE3), purified (Q-Sepharose anion exchange)
T1 sequence: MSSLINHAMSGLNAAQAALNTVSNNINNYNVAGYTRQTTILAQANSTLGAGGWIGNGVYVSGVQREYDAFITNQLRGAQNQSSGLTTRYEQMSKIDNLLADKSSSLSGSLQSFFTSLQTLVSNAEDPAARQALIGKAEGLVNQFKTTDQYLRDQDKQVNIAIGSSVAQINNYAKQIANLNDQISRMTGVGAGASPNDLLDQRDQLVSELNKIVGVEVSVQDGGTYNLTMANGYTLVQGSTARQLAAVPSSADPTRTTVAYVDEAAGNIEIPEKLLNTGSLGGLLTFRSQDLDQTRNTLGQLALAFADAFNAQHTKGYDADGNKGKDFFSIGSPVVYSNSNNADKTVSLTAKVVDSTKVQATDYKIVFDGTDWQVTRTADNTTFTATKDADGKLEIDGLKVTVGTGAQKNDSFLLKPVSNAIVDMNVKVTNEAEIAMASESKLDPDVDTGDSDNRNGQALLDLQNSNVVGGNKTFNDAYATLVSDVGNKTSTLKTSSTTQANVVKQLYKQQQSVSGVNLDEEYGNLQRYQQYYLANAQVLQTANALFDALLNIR


Key:
[1] = target: the molecule itself; experiment: high-speed atomic force microscopy; ring formation of purified FlhAC monomer (2 μM) in 50 mM Tris-HCl pH 8.0, 100 mM NaCl placed on mica, room temperature; imaged in 10 mM Tris-HCl pH 6.8
[2] = target: T1, FlgK; experiment: pull-down; GST affinity chromatography: purified His-FlhAC mixed with purified GST-FlgN/FlgK complex or GST-FliJ, dialyzed overnight against PBS pH 7.4 at 4 °C, loaded on glutathione Sepharose 4B, eluted with 10 mM reduced glutathione; SDS-PAGE with CBB staining; conditions: both partners purified

| Binder | stoichiometry N [1] | binding result [2] |
| --- | --- | --- |
| His-FlhAC with the Y369A/R370A/L371A/I372V (AAAV) mutation (domain or fragment, Intragenic suppressor (A372V) of the AAAA mutant; also called FlhA_(C-AAAV); His-FlhA_(C-AAAV); source: E. coli BL21 Star (DE3), purified (Ni-NTA, SEC); not shown: His tag, N-terminal, kept) AGILIMVINVVGGLLVGVLQHGMSIGSAAESYTLLTIGDGLVAQIPALVISTAAGVIVTRVSTDQDVGEQMVGQLFSNPRVMLLAAAVLGLLGMVPGMPNLVFLLFTAALLGLAWWLRGREEKAPEEPQPVKMPENNSVVEATWNDVQLEDSLGMEVGAAAVPMVDFQQDGELLGRIRSIRKKFAQDMGFLPPVVHIRDNMDLQPARYRILMKGVEIGSGDAYPGRWLAINPGTAAGTLPGEKTVDPAFGLDAIWIESALKEQAQIQGFTVVEASTVVATHLNHLIGQFSAELFGRQEAQQLLDRVSQEMPKLTEDLVPGVVTLTTLHKVLQNLLAEKVPIRDMRTILETLAEHAPLQSDPHELTAVVRVALGRAITQQWFPGNEEVQVIGLDTALERLLLQALQGGGGLEPGLADRLLAQTQEALSRQEMLGAPPVLLVNHALRPLLSRFLRRSLPQLVVLSNLELSDNRHIRMTATIGGK | 9 |  |
| GST-FlgN (natural protein, FlgN, flagellar export chaperone, Salmonella enterica serovar Typhimurium (plasmid pMMGN101, pGEX-6p-1); source: Salmonella SJW1368, purified (glutathione Sepharose 4B)) MTRLSEILDQMTTVLNDLKTVMDAEQQQLSVGQINGSQLQRITEEKSSLLATLDYLEQQRRLEQNAQRSANDDIAERWQAITEKTQHLRDLNQHNGWLLEGQIERNQQALEVLKPHQEPTLYGADGQTSVSHRGGKKISI |  | binds |
